In PMC9508356:

Target: biotinylated SARS-CoV-2 spike protein subdomain 1 (S1) (SARS-CoV-2) (UniProt P0DTC2)
Assay: BLI

Substance | Kd [nM] | koff [s⁻¹] | kon [M⁻¹ s⁻¹]
recombinant human albumin ACE2 genetic fusion with FcRn null-binding albumin sequence (NB-ACE2) (from UniProt Q9BYF1-1 18-740) | 31.7 | 0.000209 | 9640
recombinant human albumin ACE2 genetic fusion with wild type albumin sequence (WT-ACE2) (from UniProt Q9BYF1-1 18-740) | 32.8 | 0.00028 | 7860
